Data reported in publication doi:10.1101/2020.02.12.945204 (bioRxiv, 2020).

B1: H6 flagella (polymeric flagellin) from E. coli O127:H6 (natural protein)
chain: MAQVINTNSLSLITQNNINKNQSALSSSIERLSSGLRINSAKDDAAGQAIANRFTSNIKGLTQAARNANDGISVAQTTEGALSEINNNLQRIRELTVQASTGTNSDSDLDSIQDEIKSRLDEIDRVSGQTQFNGVNVLAKDGSMKIQVGANDGQTITIDLKKIDSDTLGLNGFNVNGKGETANTAATLKDMSGFTAAAAPGGTVGVTQYTDKSAVASSVDILNAVAGADGNKVTTSADVGFGTPAAAVTYTYNKDTNSYSAASDDISSANLAAFLNPQARDTTKATVTIGGKDQDVNIDKSGNLTAADDGAVLYMDATGNLTKNNAGGDTQATLAKVATATGAKAATIQTDKGTFTSDGTAFDGASMSIDANTFANAVKNDTYTATVGAKTYSVTTGSAAADTAYMSNGVLSDTPPTYYAQADGSITTTEDAAAGKLVYKGSDGKLTTDTTSKAESTSDPLAALDDAISQIDKFRSSLGAVQNRLDSAVTNLNNTTTNLSEAQSRIQDADYATEVSNMSKAQIIQQAGNSVLAKANQVPQQVLSLLQG
B2: H48 flagella (polymeric flagellin) from commensal E. coli K12:O175:H48 (natural protein)
chain: MAQVINTNSLSLITQNNINKNQSALSSSIERLSSGLRINSAKDDAAGQAIANRFTSNIKGLTQAARNANDGISVAQTTEGALSEINNNLQRVRELTVQATTGTNSESDLSSIQDEIKSRLDEIDRVSGQTQFNGVNVLAKNGSMKIQVGANDNQTITIDLKQIDAKTLGLDGFSVKNNDTVTTSAPVTAFGATTTNNIKLTGITLSTEAATDTGGTNPASIEGVYTDNGNDYYAKITGGDNDGKYYAVTVANDGTVTMATGATANATVTDANTTKATTITSGGTPVQIDNTAGSATANLGAVSLVKLQDSKGNDTDTYALKDTNGNLYAADVNETTGAVSVKTITYTDSSGAASSPTAVKLGGDDGKTEVVDIDGKTYDSADLNGGNLQTGLTAGGEALTAVANGKTTDPLKALDDAIASVDKFRSSLGAVQNRLDSAVTNLNNTTTNLSEAQSRIQDADYATEVSNMSKAQIIQQAGNSVLAKANQVPQQVLSLLQG
B3: recombinant human galectin-4 (natural protein)
chain: MAYVPAPGYQPTYNPTLPYYQPIPGGLNVGMSVYIQGVASEHMKRFFVNFVVGQDPGSDVAFHFNPRFDGWDKVVFNTLQGGKWGSEERKRSMPFKKGAAFELVFIVLAEHYKVVVNGNPFYEYGHRLPLQMVTHLQVDGDLQLQSINFIGGQPLRPQGPPMMPPYPGPGHCHQQLNSLPTMEGPPTFNPPVPYFGRLQGGLTARRTIIIKGYVPPTGKSFAINFKVGSSGDIALHINPRMGNGTVVRNSLLNGSWGSEEKKITHNPFGPGQFFDLSIRCGLDRFKVYANGQHLFDFAHRLSAFQRVDTLEIQGDVTLSYVQI

Tests used:
[1] = molecular target: the molecule itself; assay: SEC
[2] = molecular target: B1; assay: ELISA
[3] = molecular target: B2; assay: ELISA

| Binder | binding result [1] | binding result [2] | binding result [3] |
| --- | --- | --- | --- |
| B1 | binds | – | – |
| B2 | binds | – | – |
| B3 | – | binds | binds |
